# ± gives the uncertainty stated by the source.
# Test: amyloid nucleation score (Sup35N fusion, yeast selection) (log enrichment); library NNK3; higher = more nucleation; inactive = no reads after selection
# Method in brief: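 Three technical output replicates were used for random libraries. Psi-negative yeast expressing peptides of 20 random codons fused to Sup35N were induced with 100 μM copper sulfate for 24 hours and grown 7 days at 30°C on medium lacking adenine and uracil, and input and output plasmid inserts were Illumina-sequenced, excluding sequences with under 100 input reads. The nucleation score is the DiMSum log enrichment of output over input reads, centred on the mode score of non-aggregating sequences.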
row,Substance,amyloid nucleation score
1,HSTGFPCLLVKITGLRHRLG,inactive
2,RRLCKYYLQVKSPCIGHDCQ,inactive
3,HFCSGSINMMNFLSKDYKMQ,2.39 ± 0.063
4,NMYVNTSCIVYFE,3 ± 0.058
5,LLVSFLVVLSWAVRFSRMGD,inactive
6,FLCTLSMWYCIDRTFMYMCS,-0.053 ± 0.32
7,FKTFSFFKLFCTYCYYTLTE,inactive
8,NLLGTVIIFLRDGSS,2.13 ± 0.064
9,GSDVFTFRWGNMLRTCTTGR,inactive
10,TLTSYEKIPSMSLSG,inactive
11,TNRFIFPFLNVTHAVLFIFT,1.02 ± 0.19
12,SYSISDDLVTNHVPQNST,inactive
13,HFLLNWSRQI,inactive
14,CNVRSFRFRCSGSPHSARSS,inactive
15,MCGCARLFVSLSATAKTNP,-0.003 ± 1.1
16,YTIYIIIRW,1.03 ± 0.084
17,RTLAIRYSSNPLTIRLLQSL,inactive
18,PNGSEIENLMYRGTLSC,inactive
19,CLFREA,inactive
20,GSISLASWVVYSIAIR,inactive
21,SYSSGSSNNKS,inactive
22,DTFMDSMLYTGLSIPCKVLL,-0.116 ± 1.4
23,SNHSRYYRNHDVFWYNIEVG,inactive

row,Substance,amyloid nucleation score
1,VGYLCFLFQTDSFI,inactive
2,ICDKRWVC,inactive
3,YVLKLSRYMPN,inactive
4,FFIFRDVSTVDSLGPLYRLM,1.14 ± 0.2
5,VSFNP,-0.32 ± 0.6
6,SGMKWYLRLYV,inactive
7,KAERVVRA,inactive
8,LSFNTVDSPGRIYFRIWYGV,1.07 ± 0.14
9,IVPSNSARLLSVKALDLPIS,inactive
10,CGWMEGLCQLYENKEMKHWH,-0.261 ± 0.88
11,GVGTYI,inactive
12,TMLVFGIVNTLVVDNLRSSI,2.01 ± 0.094
13,MRCQNSCRHS,inactive
14,IYLECIYNCFYVYKIMLHRV,inactive
15,VRVELNYKMMHMSHRIMY,1.52 ± 0.073
16,KMSLGLRCYSAYKEPLVQGE,-0.055 ± 1.1
17,ICDFCQQCSVNERKTLNYSA,inactive
18,NLCNWLSCSRTSCNLRLR,inactive
19,TEDGPYTIWH,inactive
20,NNTNAQKLLINV,inactive
21,SLVSYRLWIYDLWMTWL,inactive
22,CYSCSMLFISWLCRYRSTQY,1.02 ± 0.12
23,PDNGLRAIMTAGPVFSRQSN,inactive

row,Substance,amyloid nucleation score
1,HWHRLTSCGSRLGTGVHVVL,inactive
2,GVNVWRYLCH,inactive
3,CGRNAAVSNARRCCSSKVCM,inactive
4,APKCNSTMCSCALMTLFLIS,2.14 ± 0.085
5,FSDVGLWFGAYRKVVVVKLF,inactive
6,YRTDDERCDMTTVLYSYMEY,inactive
7,GIRCSLVY,inactive
8,TRSGST,inactive
9,FMPTVQVRLQC,inactive
10,LSEIGIPVAVSFKPADSLGL,inactive
11,YRFFVKYMLLIYLINFNIFL,0.057 ± 0.6
12,RSEPIKVVWVSISQPMDFFC,2.13 ± 0.077
13,IAVCTRAMASNRLGFQYRNG,inactive
14,SLLKINGGVIHYFSCRMEDW,0.684 ± 0.34
15,SKRVIVWVTSLYWDV,inactive
16,GSATSFAFFIVFLSD,1.51 ± 0.096
17,MCGQE,inactive
18,VGPRGGNVSEGPPRVWVNGC,inactive
19,WAVCKAHDVSVDTDYYSSTG,0.302 ± 0.45
20,LSIDEWRFSSANSTALECHV,inactive
21,CLNFFPSNSWILFILMIVQK,inactive
22,NLKKARSTSFIDEPECRPRP,-0.406 ± 1.1
23,VSEIW,inactive

row,Substance,amyloid nucleation score
1,RRELWRLRTVVCTMNLLYYA,inactive
2,VIIICQLHCYTKTMIIRHRC,0.118 ± 0.3
3,LSVMLQ,0.988 ± 0.19
4,TICCSDLVVEDHG,inactive
5,CYTMSNVRVPWKRGICYCGL,inactive
6,VLTIRRFLRVSHFRNQWFPV,inactive
7,SHPASVFGGKRMGCCSRPKG,-0.304 ± 1.1
8,NGLLNRQSTSWWSTLNYCGD,inactive
9,KRYNRFIGHLMTLYRASMGD,-0.714 ± 0.88
10,LWGYDNDVNCCTMALNVHGV,0.503 ± 0.3
11,QKLNIAFRWFWWFCTLSCNS,inactive
12,EVFARIVPRDMMLFLILIIP,inactive
13,TPSSCSTLCQTDMQDQWRVG,inactive
14,NSMHAATWLEARRRLDKEGF,-0.753 ± 1.3
15,HPLAAGHGVYFSSCIFK,1.7 ± 0.097
16,RWYAVLYHLV,inactive
17,SSSNTRFVGAERCVGSWCGS,inactive
18,SKGICNFMCVL,3.37 ± 0.077
19,CKILHDRHMYVCLFAYCFVC,inactive
20,ALGKRSLLR,inactive
21,SPTLPGCLVLEIINDNI,inactive
22,LGRRLAMSV,0.692 ± 0.19
23,DIFCLVVTYAERLLYLKTRT,-0.09 ± 0.75

row,Substance,amyloid nucleation score
1,LVYKLRGRCYERLYKWRLCD,inactive
2,TNLLRTGNASSWMFKRGVEC,inactive
3,SRRSSS,1.28 ± 0.11
4,SFNFSPCVYTCVRMCIWGYF,inactive
5,TVHYSLIRWTSGNCGLGYW,0.841 ± 0.17
6,GYSNFDCLSSLNISEYGPAA,inactive
7,DGNFNQRYAHLDRSGCWL,inactive
8,VDKLFCWGLYGLATVDNRVY,inactive
9,VWGYSMYVLQIWERYSSNV,1.01 ± 0.13
10,SIFMWLRNRC,inactive
11,PGITNLWLEMSHV,inactive
12,LDKAHHHLETAKLLLAWGVI,inactive
13,TCVNLIMKIECFLYYGFLCP,inactive
14,LWHKMSDMV,inactive
15,VPSQLFLHRHHCVVWIEDMW,0.827 ± 0.19
16,TVLGELKVLFRYWFHIIWYF,inactive
17,CSGSDKVWTCLFLYAKKPRW,inactive
18,AMVTVELSDNYFWNLHTVAS,inactive
19,IKQRDN,inactive
20,ASQFRCDHCMPRLKGETMET,inactive
21,LWVAVYMFGTCWMRDEVDDV,inactive
22,FWIVSVTYFNCLVDWGEGCM,2.05 ± 0.091
23,WKDWKLRPNY,inactive

row,Substance,amyloid nucleation score
1,VLLMLLTV,inactive
2,TGPMGI,inactive
3,VVCFFYNVF,2.36 ± 0.055
4,LYCRLCVSIFM,-0.02 ± 1.1
5,SNFAMGVRLY,inactive
6,FGVSIVRHQVLLCGLSCISL,1.85 ± 0.091
7,RFFAIL,inactive
8,IERLDNSIVNVMWILSGCKA,inactive
9,VFRMCVYIDLVSLDSYYDVL,inactive
10,CYCVGHAVLCRPEHLCSVRL,inactive
11,STTMAFAAIVFEIYSVTSWF,inactive
12,KFLPGCCFYMRIMSQVSLKN,inactive
13,WLVSRIVHSLVVVIFDKDEG,inactive
14,KNLGIG,inactive
15,MLSYYRFWCPVGRVVMMSFW,inactive
16,MGNLVNSNVGSTLSKKIRND,0.351 ± 0.35
17,TGVKQCSTFTVFIFAGPVEI,1.74 ± 0.1
18,KRWGEPYRMIVGYMVRYMVT,2 ± 0.089
19,GKVVVN,inactive
20,SERQTSLRHLGLRHLFK,1.22 ± 0.16
21,KNDSVKSKCVSIGVPVPLLV,inactive
22,VGASQRVYSLLST,inactive
23,TRFLATECITSDEVVYWVTM,inactive

row,Substance,amyloid nucleation score
1,MLCTTLRNYMTSSICFIRYQ,inactive
2,TCLVSNYVAYIWGNEFFAAS,2.19 ± 0.053
3,VCLMNVSLRRSSFGATTVLA,inactive
4,DYNDCIKISIFLLYSPLIWC,1.79 ± 0.1
5,LSRLFLSRVGHVIYTKSSVD,inactive
6,QSYVRQF,inactive
7,RRGRPVLCRLHPGRWLRSRR,-0.401 ± 1.8
8,AITHL,inactive
9,GRIVMHVICNIFNCNYFGNS,2.94 ± 0.072
10,CHDVLIKWNMVCTSVVEGEH,inactive
11,TFRVNMCNPLMLGYVLFWLD,inactive
12,FFKDSIVLGVSLRYQFSYLT,inactive
13,DLSTTLINPIEEQPYHFAVP,inactive
14,SIADRMHFLWVGEGGTRDYA,inactive
15,FLVNFGKDFEIWREHYGVTI,-0.484 ± 1.4
16,DHFMNGMKQYTCRYFVLWPS,inactive
17,PNARKMCMLFVTECFKVVPK,inactive
18,VIRLLVIAFRDHLNEVMFHK,inactive
19,GAHANM,inactive
20,ECIGRKRELDLWSAARYAYS,inactive
21,ILTGNGYDSTRKAYCQFWCF,inactive
22,VSKVMSEMIYVGIYICKCCL,1.39 ± 0.11
23,MICSLTSHRKRN,inactive

# — the supplement of paper PMC12042874
